Drawing on PMC12780157 (Nature Communications, 2025), this text covers Kd for two compounds.

Assay [1] addresses β-tubulin (αβ-tubulin heterodimer). The assay can be described thus: X-ray co-crystal structure at […] Å. The assay is classed as binding.
The target of assay [2] is recombinant Tubulin protein (cat# CSK-T240-B-T) (UniProt P02550). The assay can be described thus: ITC. A general note: Isothermal titration calorimetry measures the heat released or taken up as one component is titrated into another.
Assay [3] shares this target. The assay can be described thus: ITC. This is another data set of the same source.
The target is the same in assay [4]. The assay can be described thus: ITC. The source holds these as a separate data set.

Like-named read-outs stand apart in the source and are kept apart here.

A word on the Kd: it is the constant that tells how readily two partners part at equilibrium. `COc1c(Cl)cc([C@@H]2c3cc4c(cc3C[C@H]3C(=O)NC(=O)N23)OCCO4)cc1Cl` [KY216, (6R,10aS)-6-(3,5-dichloro-4-methoxyphenyl)-2,3,10a,11-tetrahydro-[1,4]dioxino[2,3-g]imidazo[1,5-b]isoquinoline-8,10(6H,9H)-dione] gave a Kd in assay [1] of 150 ± 10 nM.

On to “recombinant VASH2 protein (cat# YHK84701) (from UniProt Q86V25 1-355) (enzyme)”, for which the results for the equilibrium dissociation constant (Kd) in assay [2], in assay [3] and in assay [4] were 1530 nM, 520 nM and 1490 nM, respectively.
